{
  "source": "paper PMC7265331",
  "biological_target": "Cab45 (UniProt Q9BRK5)",
  "experiment": "GFP-Cab45 oligomerization assay, confocal microscopy",
  "details": "reference: GFP-Cab45-WT; sites S99,T131,S142,T193,S349",
  "data": [
    {"substance": "Cab45 (from UniProt Q9BRK5) GFP-Cab45-5pXE", "values": [
      {"measurement": "other: share of oligomers with maximum intensity <500 a.u.", "value": "same; reference 55"}
    ]}
  ]
}
